In patent CN111110862A one finds Emax, 结合值 (FACS读值) and 荧光强度值(本底) data, which are given here for one substance.

Assay [1] has as its target 鼠CLDN18.2(mCLDN18.2) (mouse) (UniProt P56857). Briefly: cell ELISA on fixed mCLDN18.2+cell; background.
Assay [2] addresses 人CLDN18.2(hCLDN18.2) (human) (UniProt P56856). Briefly: flow cytometry, CF633-labelled antibody 2.5μg/ml on hCLDN18.2+cell; background. (Flow cytometry measures light scatter and fluorescence of single cells or particles in a stream.)
Assay [3] has the same target. Briefly: flow cytometry, CF488-labelled antibody 10μg/ml on hCLDN18.2+cell; range over the binding value and the time points.
The target is the same in assay [4]. Briefly: flow cytometry, CF633-labelled antibody 10μg/ml on hCLDN18.2+cell; range over the binding value and the time points.

Where “and” joins values, the source holds several entries; their conditions need not be identical. Equal values may be shown once.

UniProt P56857, sequence (P56857 other isoform, or with tags, fused parts or gaps, form in doubt): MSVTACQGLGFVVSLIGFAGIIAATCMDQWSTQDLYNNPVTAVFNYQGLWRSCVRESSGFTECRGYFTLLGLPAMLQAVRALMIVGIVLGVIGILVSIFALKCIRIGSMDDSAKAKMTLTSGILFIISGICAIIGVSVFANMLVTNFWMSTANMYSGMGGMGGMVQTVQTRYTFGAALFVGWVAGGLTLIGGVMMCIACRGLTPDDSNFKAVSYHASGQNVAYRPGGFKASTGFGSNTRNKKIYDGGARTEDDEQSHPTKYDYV

In the case of Neg IgG (和靶点没有结合的非特异性抗体) (antibody), in assay [1], the Emax was 0.19. This substance also gave a 结合值 (FACS读值) in assay [2] of 932. The 荧光强度值(本底) in assay [3] is 1280 to 3480; in assay [4], 23.2 and 14.9.
